Assay results as given in patent publication US20260226144A1 (NEPHRIS, published 2026).
Numbering of substitutions follows the chain as printed.

T1: native human NBL1 (human, UniProt P41271 17-181, limits assumed)
T1 construct: Endogenous protein in permeabilized PBMCs of healthy volunteers; also called native human NBL1 found in human PBMCs
T1 sequence (looked up): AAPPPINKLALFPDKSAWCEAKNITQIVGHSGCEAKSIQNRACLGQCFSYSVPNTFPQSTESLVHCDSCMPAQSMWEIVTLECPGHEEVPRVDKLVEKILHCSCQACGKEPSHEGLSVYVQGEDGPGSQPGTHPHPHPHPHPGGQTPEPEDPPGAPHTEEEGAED

T2: mouse NBL1 (mouse, UniProt Q61477 17-178, limits assumed)
T2 sequence (looked up): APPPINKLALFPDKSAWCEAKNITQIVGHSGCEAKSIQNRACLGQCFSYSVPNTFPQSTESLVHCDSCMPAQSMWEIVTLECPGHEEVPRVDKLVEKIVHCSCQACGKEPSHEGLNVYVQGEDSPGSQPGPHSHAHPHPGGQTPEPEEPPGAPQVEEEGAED

T3: native murine NBL1 (murine, UniProt Q61477 17-178)
T3 construct: Endogenous protein, not recombinant; also called murine plasma NBL1; murine splenocyte NBL1
T3 sequence (looked up): T2 sequence (looked up)

B1: Antibody YU1019-B06 (antibody, human IgG1, V domains shown)
VH: EVQLLESGGGVVQPGRSLRLSCAASGFTFSSYAMHWVRQAPGKGLEWVAVISYDGSNKYYADSVKGRFTISRDNSKNTLYLQMNSLRAEDTAVYYCASPVLRYFDWLPNYWGQGTLVTVSS
VL: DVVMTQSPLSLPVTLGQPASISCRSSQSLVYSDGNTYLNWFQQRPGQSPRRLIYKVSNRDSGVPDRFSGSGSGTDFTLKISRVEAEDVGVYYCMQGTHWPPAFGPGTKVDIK
B2: Antibody YU1019-A12 (antibody, human IgG1, V domains shown)
VH: EVQLLESGPGLVKPSQTLSLTCTVSGGSISSGDYYWSWIRQPPGKGLEWIGYIYYSGSTYYNPSLKSRVTISVDTSKNQFSLKLSSVTAADTAVYYCARGRRLLLFHWGQGTTVTVSS
VL: QSVLTQPPSVSAAPGQKVTISCSGSGSSIGNNYVSWYQQVPGTPPKLLIYDNNKRASGIPDRFSGSKSGTSATLGITGLQTGDEADYYCGTWDNSLSAVVFGGGTKLTVL
B3: Antibody YU1018-E04 (antibody, human IgG1, V domains shown)
VH: QVQLVQSGAEVKKPGESLKISCKGSGYSFTSYWIGWVRQMPGKGLEWMGIIYPGDSDTRYSPSFQGQVTISADKSISTAYLQWSSLKASDTAMYYCARAIVGATSGYWFDPWGQGTLVTVSS
VL: not shown
B4: Antibody YU1018-E07 (antibody, V domains shown)
VH: B1 VH with L116T
VL: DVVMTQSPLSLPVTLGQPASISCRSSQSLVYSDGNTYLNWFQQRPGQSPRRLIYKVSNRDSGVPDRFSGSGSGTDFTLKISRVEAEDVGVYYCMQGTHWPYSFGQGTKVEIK
B5: Antibody YU1018-D06 (antibody, human IgG1, V domains shown)
VH: QVQLVESGPGLVKPSQTLSLTCTVSGGSISSGGYYWSWIRQHPGKGLEWIGYIYYSGSTYYNPSLKSRVTISVDTSKNQFSLKLSSVTAADTAVYYCARSGAAGIPWFDPWGQGTLVTVSS
VL: B2 VL with G26S, S28N, V40L, P44A, D51E, K54E, A56P, F63L, G75A, N94S
B6: Antibody YU1018-E01 (antibody, human IgG1, V domains shown)
VH: QVQLVQSGAEVKKPGASVKVSCKASGYTFTSYGISWVRQAPGRGLEWMGWISAYNGNTNYAQKLQGRVTMTTDTSTSTAYMELRSLRSDDTAVYYCARGPRDGYNDYWGQGTLVTVSS
VL: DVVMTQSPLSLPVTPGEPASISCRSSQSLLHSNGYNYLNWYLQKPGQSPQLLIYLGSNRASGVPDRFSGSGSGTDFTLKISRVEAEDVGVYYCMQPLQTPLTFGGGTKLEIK
B7: Antibody YU1018-D08 (antibody, human IgG1, V domains shown)
VH: QVQLVQSGAEVKKPGSSVKVSCKASGGTFSSYAISWVRQAPGQGLEWMGGIIPIFGTANYAQKFQGRVTITADKSTSTAYMELSSLRSEDTAVYYCARDRYYDSSGYYLMDPWGQGTLVTVSS
VL: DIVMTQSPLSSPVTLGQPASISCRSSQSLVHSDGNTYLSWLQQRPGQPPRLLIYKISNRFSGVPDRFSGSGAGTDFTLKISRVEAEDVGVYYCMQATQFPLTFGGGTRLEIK
B8: Antibody YU1018-D12 (antibody, V domains shown)
VH: EVQLVQSGAEVKKPGASVKVSCKASGYTFTSYGISWVRQAPGQGLEWMGWISAYNGNTNYAQKLQGRVTMTTDTSTSTAYMELRSLRSDDTAVYYCARDVGYSYGIFDYWGQGTLVTVSS
VL: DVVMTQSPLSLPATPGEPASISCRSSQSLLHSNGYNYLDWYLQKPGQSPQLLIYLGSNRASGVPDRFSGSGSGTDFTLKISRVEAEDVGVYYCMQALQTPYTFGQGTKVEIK
B9: Antibody YU1018-G01 (antibody, human IgG1, V domains shown)
VH: QVQLVQSGAEVKKPGASVKVSCKASGYTFTSYAMHWVRQAPGQRLEWMGWINAGNGNTKYSQKFQGRVTITRDTSASTAYMELSSLRSEDTAVYYCARGRELLTFDYWGQGTLVTVSS
VL: not shown
B10: Antibody YU1018-C11 (antibody, V domains shown)
VH: QVQLVQSGGGLVQPGGSLRLSCAASGFTFSSYAMSWVRQAPGKGLEWVSAISGSGGSTYYADSVKGRFTISRDNSKNTLYLQMNSLRAEDTAVYYCARGGFWGSYRYWSAAFDIWGQGTMVTVSS
VL: not shown

Each binder was assayed against T1, native human NBL1 (assay: immunotargeted assay on permeabilized human PBMCs, FACS).
Text: PBMCs were isolated from blood samples of healthy volunteers.

Binding result, binds:
B1
B2
B3

These binders were tested against T2, mouse NBL1 (assay: ELISA, IgG1 format).

Binding result, binds:
B1
B4
B2
B5
B6
B7
B8
B3
B9
B10

The binders below were run against T3, native murine NBL1 (assay: immunotarget assay on permeabilized murine splenocytes, FACS).

Binding result, binds:
B1
B3

What follows are binders tested against T3, native murine NBL1 (assay: sandwich ELISA on native murine plasma NBL1).
Experimental: Binding of the mAbs to native murine plasma NBL1 was performed using a sandwich ELISA, as illustrated in FIG. 11A.

Binding result, binds:
B2
